Where a chain is given by its changes, count along the chain named.
Assays:
Assay in all cases: cell-based or functional assay
thrombin = thrombin (human, UniProt P00734 328-622)
factor Xa = factor Xa (human, UniProt P00742 41-179; P00742 235-488, limits assumed)
human factor Xa = human factor Xa (human, UniProt P00742 41-179; P00742 235-488, limits assumed)
[1] = target: T1, human neutrophil cathepsin G (human, UniProt P08311 21-244)
T1 sequence (looked up): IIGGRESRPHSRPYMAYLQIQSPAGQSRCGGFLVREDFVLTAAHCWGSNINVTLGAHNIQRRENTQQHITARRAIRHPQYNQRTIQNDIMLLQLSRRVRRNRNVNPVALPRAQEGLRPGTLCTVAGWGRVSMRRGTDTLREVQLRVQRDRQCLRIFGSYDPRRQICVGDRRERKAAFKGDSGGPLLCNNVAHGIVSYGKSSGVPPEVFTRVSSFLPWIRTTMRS

[2] = target: T2, human neutrophil elastase (human, UniProt P08246 30-247, limits assumed)
T2 sequence (looked up): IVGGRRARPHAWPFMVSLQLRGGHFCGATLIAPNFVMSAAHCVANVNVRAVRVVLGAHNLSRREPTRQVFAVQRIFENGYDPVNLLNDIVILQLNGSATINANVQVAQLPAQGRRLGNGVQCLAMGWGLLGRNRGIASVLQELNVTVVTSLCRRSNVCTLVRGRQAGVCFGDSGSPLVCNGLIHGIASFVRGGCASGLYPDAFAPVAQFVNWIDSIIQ

human thrombin = human thrombin (human, UniProt P00734 328-622)

factor Xa, sequence (P00742 41-179 limits assumed, chain 1 of 2): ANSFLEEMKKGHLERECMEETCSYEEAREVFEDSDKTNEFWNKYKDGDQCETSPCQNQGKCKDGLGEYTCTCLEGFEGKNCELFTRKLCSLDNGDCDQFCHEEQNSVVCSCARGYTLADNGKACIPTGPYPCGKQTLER
factor Xa, sequence (P00742 235-488 limits assumed, chain 2 of 2): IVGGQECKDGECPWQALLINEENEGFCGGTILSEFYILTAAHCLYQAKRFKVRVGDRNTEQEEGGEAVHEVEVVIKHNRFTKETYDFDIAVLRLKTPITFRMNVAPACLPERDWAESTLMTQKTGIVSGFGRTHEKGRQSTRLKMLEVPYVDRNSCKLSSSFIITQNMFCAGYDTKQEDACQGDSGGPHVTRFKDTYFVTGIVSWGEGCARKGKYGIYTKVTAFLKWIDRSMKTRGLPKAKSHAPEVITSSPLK
human factor Xa, sequence (P00742 41-179 limits assumed, chain 1 of 2): as the sequence (P00742 41-179 limits assumed, chain 1 of 2) above
human factor Xa, sequence (P00742 235-488 limits assumed, chain 2 of 2): as the sequence (P00742 235-488 limits assumed, chain 2 of 2) above

B1: LEAI.477 (other)
chain: SPVDICTAKPRDIPMNPMCIYRSPEKKATEDEGSEQKIPEATNRRVWELSKANSRFATTFYQHLADSKNDNDNIFLSPLSISTAFAMTKLGACNDTLQQLMEVFKFDTISEKTSDQIHFFFAKLNCRLYRKANKASKLVSANRLFGDKSLTFNETYQDISELVYGAKLQPLDFKENAEQSRAAINKWVSNKTEGRITDVIPSEAINELTVLVLVNTIYFKGLWKSKFSPENTRKELFYKADGESCSASMMYQEGKFRYRRVAEGTQVLELPFKGDDITMVLILPKPEKSLAKVEKELTPEVLQEWLDELEEMMLVVHMPRFRIEDGFSLKEQLQDMGLVDLFSPEKSKLPGIVAEGRDDLYVSDAFHKAFLEVNEEGSEAAASTALEAPGRSLNPNRVTFKANRPFLVFIREVPLNTIIFMGRVANPCVK
thrombin
  IC50 IIa/UFH; HCA #4: 0.333 µM
Factor Xa
  IC50 fXa/UFH; HCA #4: 0.018 µM

B2: LEAQ.505 (other)
chain: B1 chain with E387Q, P389Q
Human factor Xa
  IC50 fXa/UFH (HCA #5): 0.016 µM
  rsd Xa, no add (CA #51, stg 1 conc 200): 1%
[1]
  rsd IIa, catG (CA #51, stg 1 conc 200): 0%
  rsd Xa, catG (CA #51, stg 1 conc 200): -2%
[2]
  rsd IIa, HNE (CA #51, stg 1 conc 200): 0%
  rsd Xa, HNE (CA #51, stg 1 conc 200): 1%
Human thrombin
  IC50 IIa/UFH (HCA #5): 0.018 µM
  rsd IIa, no add (CA #51, stg 1 conc 200): 0%

B3: 13C.432 (other)
chain: B1 chain with A385E, A388I, P389A
Human factor Xa
  IC50 fXa/UFH; HCA #2: 0.045 µM
Human thrombin
  IC50 IIa/UFH; HCA #2: 0.46 µM

B4: LEAQ.516 (other)
chain: B1 chain with A385F, P389Q
Human factor Xa
  IC50 fXa/UFH (HCA #6): 0.025 µM
  rsd Xa, no add (CA #52, stg 1 conc 200): 3%
[1]
  rsd IIa, catG (CA #52, stg 1 conc 200): 5%
  rsd Xa, catG (CA #52, stg 1 conc 200): 1%
[2]
  rsd IIa, HNE (CA #52, stg 1 conc 200): 9%
  rsd Xa, HNE (CA #52, stg 1 conc 200): 3%
Human thrombin
  IC50 IIa/UFH (HCA #6): 0.12 µM
  rsd IIa, no add (CA #52, stg 1 conc 200): 4%

B5: LEAQ.515 (other)
chain: B1 chain with A385L, P389Q
Human factor Xa
  IC50 fXa/UFH (HCA #6): 0.018 µM
  rsd Xa, no add (CA #52, stg 1 conc 200): 2%
[1]
  rsd IIa, catG (CA #52, stg 1 conc 200): 3%
  rsd Xa, catG (CA #52, stg 1 conc 200): 1%
[2]
  rsd IIa, HNE (CA #52, stg 1 conc 200): 3%
  rsd Xa, HNE (CA #52, stg 1 conc 200): 2%
Human thrombin
  IC50 IIa/UFH (HCA #6): 0.11 µM
  rsd IIa, no add (CA #52, stg 1 conc 200): 5%

B6: LEAQ.518 (other)
chain: B1 chain with A385T, P389Q
Human factor Xa
  IC50 fXa/UFH (HCA #6): 0.027 µM
  rsd Xa, no add (CA #52, stg 1 conc 200): 3%
[1]
  rsd IIa, catG (CA #52, stg 1 conc 200): 2%
  rsd Xa, catG (CA #52, stg 1 conc 200): 1%
[2]
  rsd IIa, HNE (CA #52, stg 1 conc 200): 3%
  rsd Xa, HNE (CA #52, stg 1 conc 200): 2%
Human thrombin
  IC50 IIa/UFH (HCA #6): 0.05 µM
  rsd IIa, no add (CA #52, stg 1 conc 200): 4%

B7: LEAQ.509 (other)
chain: B1 chain with E387V, P389Q
Human factor Xa
  IC50 fXa/UFH (HCA #5): 0.016 µM
  IC50 fXa/UFH (HCA #6): 0.02 µM
  rsd Xa, no add (CA #51, stg 1 conc 200): -1%
  rsd Xa, no add (CA #52, stg 1 conc 200): 3%
[1]
  rsd IIa, catG (CA #51, stg 1 conc 200): 0%
  rsd IIa, catG (CA #52, stg 1 conc 200): 6%
  rsd Xa, catG (CA #51, stg 1 conc 200): -1%
  rsd Xa, catG (CA #52, stg 1 conc 200): 1%
[2]
  rsd IIa, HNE (CA #51, stg 1 conc 200): 1%
  rsd IIa, HNE (CA #52, stg 1 conc 200): 52%
  rsd Xa, HNE (CA #51, stg 1 conc 200): -3%
  rsd Xa, HNE (CA #52, stg 1 conc 200): 10%
Human thrombin
  IC50 IIa/UFH (HCA #5): 0.016 µM
  IC50 IIa/UFH (HCA #6): 0.018 µM
  rsd IIa, no add (CA #51, stg 1 conc 200): 1%
  rsd IIa, no add (CA #52, stg 1 conc 200): 1%

B8: LEAQ.517 (other)
chain: B1 chain with A385S, P389Q
Human factor Xa
  IC50 fXa/UFH (HCA #6): 0.027 µM
  rsd Xa, no add (CA #52, stg 1 conc 200): 2%
[1]
  rsd IIa, catG (CA #52, stg 1 conc 200): 2%
  rsd Xa, catG (CA #52, stg 1 conc 200): 1%
[2]
  rsd IIa, HNE (CA #52, stg 1 conc 200): 3%
  rsd Xa, HNE (CA #52, stg 1 conc 200): 2%
Human thrombin
  IC50 IIa/UFH (HCA #6): 0.065 µM
  rsd IIa, no add (CA #52, stg 1 conc 200): 4%

B9: LEAQ.501 (other)
chain: B1 chain with E387D, P389Q
Human factor Xa
  IC50 fXa/UFH (HCA #5): 0.015 µM
  IC50 fXa/UFH (HCA #6): 0.019 µM
  rsd Xa, no add (CA #51, stg 1 conc 200): 1%
[1]
  rsd IIa, catG (CA #51, stg 1 conc 200): 3%
  rsd Xa, catG (CA #51, stg 1 conc 200): -2%
[2]
  rsd IIa, HNE (CA #51, stg 1 conc 200): 3%
  rsd Xa, HNE (CA #51, stg 1 conc 200): 1%
Human thrombin
  IC50 IIa/UFH (HCA #5): 0.15 µM
  IC50 IIa/UFH (HCA #6): 0.14 µM
  rsd IIa, no add (CA #51, stg 1 conc 200): 2%

B10: LEAI.473 (other)
chain: B1 chain with P389D
thrombin
  IC50 IIa/UFH; HCA #4: > 1 µM
Factor Xa
  IC50 fXa/UFH; HCA #4: 0.028 µM

B11: LEAI (other)
chain: B1 chain with P389I
thrombin
  IC50 IIa/UFH; HCA #2: 0.045 µM
Factor Xa
  IC50 fXa/UFH; HCA #2: 0.037 µM

B12: LEAI.481 (other)
chain: B1 chain with P389G
thrombin
  IC50 IIa/UFH; HCA #3: 0.22 µM
Factor Xa
  IC50 fXa/UFH; HCA #3: 0.024 µM

B13: LEAI.478 (other)
chain: B1 chain with P389S
thrombin
  IC50 IIa/UFH; HCA #4: 0.1 µM
  rsd. IIa catG; CA #12; stg1 conc 200: 1%
  rsd. IIa hne; CA #12; stg1 conc 200: 79%
  rsd. IIa no add; CA #12; stg1 conc 200: 1%
Factor Xa
  IC50 fXa/UFH; HCA #4: 0.012 µM
  rsd. Xa catG; CA #12; stg1 conc 200: 1%
  rsd. Xa hne; CA #12; stg1 conc 200: 1%
  rsd. Xa no add; CA #12; stg1 conc 200: 1%

B14: LEAQ.521 (other)
chain: B1 chain with A385H, P389Q
Human factor Xa
  IC50 fXa/UFH (HCA #6): 0.025 µM
Human thrombin
  IC50 IIa/UFH (HCA #6): 0.1 µM

B15: LEAQ.514 (other)
chain: B1 chain with A385V, P389Q
Human factor Xa
  IC50 fXa/UFH (HCA #6): 0.04 µM
Human thrombin
  IC50 IIa/UFH (HCA #6): 0.105 µM

B16: LEAQ.507 (other)
chain: B1 chain with E387R, P389Q
Human factor Xa
  IC50 fXa/UFH (HCA #5): 0.055 µM
  rsd Xa, no add (CA #51, stg 1 conc 200): -2%
[1]
  rsd IIa, catG (CA #51, stg 1 conc 200): 2%
  rsd Xa, catG (CA #51, stg 1 conc 200): -2%
[2]
  rsd IIa, HNE (CA #51, stg 1 conc 200): 2%
  rsd Xa, HNE (CA #51, stg 1 conc 200): -3%
Human thrombin
  IC50 IIa/UFH (HCA #5): 0.055 µM
  rsd IIa, no add (CA #51, stg 1 conc 200): 1%

B17: LEAI.479 (other)
chain: B1 chain with P389W
thrombin
  IC50 IIa/UFH; HCA #3: 0.28 µM
Factor Xa
  IC50 fXa/UFH; HCA #3: 0.1 µM

B18: LEAI.471 (other)
chain: B1 chain with P389R
thrombin
  IC50 IIa/UFH; HCA #2: 0.037 µM
  IC50 IIa/UFH; HCA #3: 0.035 µM
  rsd. IIa catG; CA #12; stg1 conc 200: 0%
  rsd. IIa catG; CA #14; stg1 conc 200: 1%
  rsd. IIa catG; CA #15; stg1 conc 200: 1%
  rsd. IIa hne; CA #12; stg1 conc 200: 62%
  rsd. IIa hne; CA #14; stg1 conc 200: 41%
  rsd. IIa hne; CA #15; stg1 conc 200: 65%
  rsd. IIa no add; CA #12; stg1 conc 200: 0%
  rsd. IIa no add; CA #14; stg1 conc 200: 2%
  rsd. IIa no add; CA #15; stg1 conc 200: 2%
Factor Xa
  IC50 fXa/UFH; HCA #2: 0.275 µM
  IC50 fXa/UFH; HCA #3: 0.32 µM
  rsd. Xa catG; CA #12; stg1 conc 200: 48%
  rsd. Xa catG; CA #14; stg1 conc 200: 59%
  rsd. Xa catG; CA #15; stg1 conc 200: 82%
  rsd. Xa hne; CA #12; stg1 conc 200: 86%
  rsd. Xa hne; CA #14; stg1 conc 200: 100%
  rsd. Xa hne; CA #15; stg1 conc 200: 103%
  rsd. Xa no add; CA #12; stg1 conc 200: 45%
  rsd. Xa no add; CA #14; stg1 conc 200: 44%
  rsd. Xa no add; CA #15; stg1 conc 200: 57%
